In general, Kd refers to the equilibrium constant for the complex coming apart. Broadly, the IC50 is the concentration that inhibits the measured activity by half.

One assay deals with HLA-C*15:02. Nature of the assay: IEDB peptide-MHC binding, purified MHC/direct/fluorescence; filed as Kd, often an IC50 or EC50 that approximates it; ≥ and ≤ were set here for values at or beyond the usual limits of such assays. The settings on record: source organism: Burkholderia pseudomallei 406e.
The target of the next assay is HLA-C*14:02. The assay is described as above. The settings on record: source organism: Burkholderia pseudomallei 406e.
A further assay concerns the target HLA-C*07:02. The assay is described as above. The settings on record: source organism: Burkholderia pseudomallei 406e.
Another assay concerns the target HLA-B*40:13. Description: IEDB peptide-MHC binding, purified MHC/competitive/fluorescence; filed as Kd, often an IC50 or EC50 that approximates it; ≥ and ≤ were set here for values at or beyond the usual limits of such assays. The settings on record: source organism: Burkholderia pseudomallei 406e.
Another assay deals with HLA-B*15:42. The assay is described as above. The following applies: source organism: Burkholderia pseudomallei 406e.
For the next assay, the target named is HLA-A*68:23. The description is as above. The following applies: source organism: Burkholderia pseudomallei 406e.
A further assay deals with HLA-A*32:15. The assay is described as above. The settings on record: source organism: Burkholderia pseudomallei 406e.
A further assay deals with HLA-B*27:20. Described as above. The following applies: source organism: Burkholderia pseudomallei 406e.
The target in another assay is HLA-A*29:02. The assay is described as above. The following applies: source organism: Burkholderia pseudomallei 406e.
The next assay has as its target HLA-B*83:01. The assay is described as above. The settings on record: source organism: Burkholderia pseudomallei 406e.
For a further assay, the target named is HLA-B*45:06. The assay is described as above. The following applies: source organism: Burkholderia pseudomallei 406e.
The target of another assay is HLA-C*06:02. The description is as above. The settings on record: source organism: Burkholderia pseudomallei 406e.
For the next assay, the target named is HLA-B*73:01. Described as above. The settings on record: source organism: Yersinia enterocolitica subsp. enterocolitica 8081.
In a further assay the target is HLA-B*15:03. Description: IEDB peptide-MHC binding, purified MHC/competitive/radioactivity; filed as Kd, often an IC50 or EC50 that approximates it; ≥ and ≤ were set here for values at or beyond the usual limits of such assays. The following applies: source organism: Vaccinia virus WR.
Another assay has as its target HLA-A*68:02. Nature of the assay: IEDB peptide-MHC binding, purified MHC/direct/fluorescence; filed as Kd, often an IC50 or EC50 that approximates it; ≥ and ≤ were set here for values at or beyond the usual limits of such assays. The following applies: source organism: Camelpox virus M-96.
Assay [1] has as its target HLA-B*15:02. The description is as above.
In a further assay the target is HLA-A*26:03. Described as above. The settings on record: source organism: Variola virus.
The next assay deals with HLA-B*15:01. The assay is described as above.
Assay [2] addresses HLA-A*11:01. Described as above.
In the next assay the target is HLA-B*07:02. The assay is described as above.
The target in a further assay is HLA-A*02:01. The assay is described as above.
Another assay deals with HLA-A*01:01. Described as above.
Another assay addresses HLA-B*27:05. Described as above.
The target of another assay is HLA-B*46:01. The assay is described as above.
For a further assay, the target named is HLA-B*57:01. Described as above. The following applies: source organism: Camelpox virus M-96.
The next assay addresses HLA-A*69:01. The description is as above.
For a further assay, the target named is HLA-B*58:01. Described as above.
For another assay, the target named is HLA-B*48:01. The assay is described as above.
Another assay concerns the target HLA-A*31:01. The assay is described as above.
The next assay deals with HLA-B*08:02. The description is as above.
For the next assay, the target named is HLA-A*26:02. Description: IEDB peptide-MHC binding, purified MHC/competitive/fluorescence; filed as Kd, often an IC50 or EC50 that approximates it; ≥ and ≤ were set here for values at or beyond the usual limits of such assays. The settings on record: source organism: Vaccinia virus WR.
Another assay deals with HLA-B*15:17. Described as above. The following applies: source organism: Vaccinia virus WR.
In another assay the target is HLA-A*24:02. Nature of the assay: IEDB peptide-MHC binding, cellular MHC/competitive/fluorescence; ≥ and ≤ were set here for values at or beyond the usual limits of such assays. The following applies: source organism: Human herpesvirus 5 strain AD169.
In a further assay the target is HLA-B*15:09. Nature of the assay: IEDB peptide-MHC binding, purified MHC/direct/fluorescence; filed as Kd, often an IC50 or EC50 that approximates it; ≥ and ≤ were set here for values at or beyond the usual limits of such assays. The settings on record: source organism: Yersinia pestis KIM10+.
A further assay addresses HLA-B*39:01. The description is as above. The settings on record: source organism: Yersinia pestis KIM10+.
The target in a further assay is HLA-B*35:01. The assay is described as above.
Assay [3] deals with HLA-A*11:01. Description: IEDB peptide-MHC binding, purified MHC/competitive/fluorescence; filed as Kd, often an IC50 or EC50 that approximates it; ≥ and ≤ were set here for values at or beyond the usual limits of such assays. The settings on record: source organism: Yersinia pestis KIM10+.
In assay [4] the target is HLA-A*26:01. The description is as above. The following applies: source organism: Yersinia pestis KIM10+.
The target in assay [5] is HLA-B*15:02. Described as above.
A further assay deals with HLA-B*08:01. Description: IEDB peptide-MHC binding, purified MHC/direct/fluorescence; filed as Kd, often an IC50 or EC50 that approximates it; ≥ and ≤ were set here for values at or beyond the usual limits of such assays. The following applies: source organism: Pasteurella multocida.
A further assay deals with HLA-A*03:01. Described as above. The following applies: source organism: Pasteurella multocida.
In assay [6] the target is HLA-A*26:01. The description is as above. The following applies: source organism: Pasteurella multocida.
The target in a further assay is HLA-B*40:01. The description is as above. The settings on record: source organism: Pasteurella multocida.
[7] abbreviates: source organism: Camelpox virus M-96.
The mark [8] stands for this setting: source organism: Yersinia pestis KIM10+.
The mark [9] stands for this setting: source organism: Yersinia pestis.
Where [10] appears, read: source organism: Pasteurella multocida.

On to MSWGWRLPF, for which the dissociation constant Kd was 1.72 µM in the assay with HLA-C*15:02; 0.286 µM in the assay with HLA-C*14:02; 0.248 µM with HLA-C*07:02; 0.223 µM in the assay with HLA-B*40:13; not below 5 µM with HLA-B*15:42; 0.0802 µM in the assay with HLA-A*68:23. In addition, the Kd in the assay with HLA-A*32:15 was 0.005 µM; in the assay with HLA-B*27:20 it was 0.0497 µM; in the assay with HLA-A*29:02 it was 0.0161 µM; with HLA-B*83:01, 5.92 µM; in the assay with HLA-B*45:06 it was not below 5 µM; with HLA-C*06:02, 0.387 µM.
WDYLVRHDA came in with a dissociation constant (Kd) with HLA-B*73:01 of 4.5 µM.
With YQYIFLSFF, the Kd in the assay with HLA-B*15:03 was 0.000944 µM; with HLA-A*68:02, not below 20 µM; with HLA-B*15:02 [1] (source organism: Variola virus) it was 1.94 µM; with HLA-A*26:03, not below 20 µM; with HLA-B*15:01 (setting [7]), 3.06 µM; with HLA-A*11:01 [2] (setting [7]) it was not below 20 µM. Besides, the Kd with HLA-B*07:02 (setting [7]), with HLA-A*02:01 (setting [7]), in the assay with HLA-A*01:01 (setting [7]), with HLA-B*27:05 (setting [7]), in the assay with HLA-B*46:01 (setting [7]) and with HLA-B*57:01 was not below 20 µM each time. Moreover, the Kd with HLA-A*69:01 (setting [7]), with HLA-B*58:01 (setting [7]), with HLA-B*48:01 (setting [7]), in the assay with HLA-A*31:01 (setting [7]), with HLA-B*08:02 (source organism: Variola virus) and with HLA-A*26:02 was not below 20 µM each time. The same sequence gave a dissociation constant Kd with HLA-B*15:17 not below 20 µM.
VFPTKDVAL had an IC50 with HLA-A*24:02 not below 333 µM.
For the sequence STFAASGPF, the Kd was 0.009 µM with HLA-B*15:02 [1] (setting [8]); 0.007 µM in the assay with HLA-B*15:01 (setting [9]); not below 20 µM in the assay with HLA-B*07:02 (setting [9]); not below 20 µM with HLA-A*02:01 (setting [9]); not below 20 µM with HLA-A*01:01 (setting [9]); not below 20 µM with HLA-B*27:05 (setting [9]). The Kd in the assay with HLA-B*46:01 (setting [9]) is 6.19 µM; with HLA-B*15:09 it was not below 20 µM; in the assay with HLA-B*39:01 it was not below 20 µM; with HLA-B*58:01 (setting [9]), not below 20 µM; in the assay with HLA-B*48:01 (setting [9]) it was not below 20 µM; with HLA-B*35:01 (setting [8]), 0.045 µM. The equilibrium dissociation constant (Kd) was not below 20 µM in the assay with HLA-A*31:01 (setting [9]), not below 20 µM in the assay with HLA-B*08:02 (setting [8]), not below 20 µM with HLA-A*11:01 [3] and 0.0192 µM with HLA-A*26:01 [4].
For the sequence MQLPQGGAF, the Kd in the assay with HLA-B*15:02 [5] (source organism: Burkholderia pseudomallei K96243) is 0.0235 µM.
Consider SQLEMCEKY, for which the Kd with HLA-B*15:01 (setting [10]) was 0.299 µM; with HLA-A*11:01 [2] (setting [10]), not below 20 µM; with HLA-B*07:02 (setting [10]), not below 20 µM; with HLA-A*02:01 (setting [10]), not below 20 µM; in the assay with HLA-A*01:01 (setting [10]), not below 20 µM; with HLA-B*08:01, not below 20 µM. In addition, the Kd with HLA-B*27:05 (setting [10]), with HLA-A*03:01, with HLA-A*26:01 [6], with HLA-A*69:01 (setting [10]), in the assay with HLA-B*40:01 and with HLA-B*58:01 (setting [10]) was not below 20 µM in each case. The Kd with HLA-B*35:01 (setting [10]) is 0.121 µM; with HLA-A*31:01 (setting [10]), not below 20 µM; with HLA-B*15:02 [5] (source organism: Pasteurella multocida subsp. multocida str. Pm70), 0.0744 µM.

The values above are taken from the Immune Epitope Database (IEDB).
